# According to patent publication US20120129768A1:
# Non-standard residues stand in square brackets, D forms with d. No end group written: not given here.
# B1: HS-20003 (peptide)
# peptide: H[dA]EGTFTSDVSSYLEEEAAKEFIAWLVRGGPSSGAPPPSK
# modifications: not fully specified (residue 40); also: palmitoyl on alpha-amino of C-terminal Lys, chain built on its epsilon amino
# Molecular target: Glucagon-like peptide-1 receptor (GLP1R)
# Test: cell-based or functional assay
binder,measurement,value
B1,"EC50 (nM), cAMP-response-element luciferase reporter in HEK293 cells with GLP1R",0.000719 nM
same,Maximum reaction rate (%),87.9%
